Measurements published in patent US11278600B2, “Human alpha-galactosidase variants” (Codexis, Inc., priority 2014, dated 2022).
Residue numbers refer to the chain shown, from its start.

B1: 249 (protein)
chain: LDNGLARTPTMGWLHWERFMCNLDCQEEPDSCISEKLFMEMAELMVSEGWKDAGYEYLCIDDCWMAPQRDSEGRLQADPQRFPHGIRQLANYVHSKGLKLGIYADVGNKTCAGFPGSFGYYDIDAQTFADWGVDLLKFDGCYCDSLENLADGYKHMSLALNRTGRSIVYSCEWPLYMWPFQKPNYTEIRQYCNHWRNFADIDDSWASIKSILDWTSFNQETIVDVAGPGGWNDPDMLVIGNFGLSWNQQVTQMALWAIMAAPLFMSNDLRHISPQAKALLQDKDVIAINQDPLGKQGYQLRQGDNFEVWERPLSGLAWAVAVINRQEIGGPRSYTIAVASLGKGVACNPACFITQLLPVKRKLGFYEWTSRLKSHINPTGTVLLQLENTMQMSLKDLL
modifications: Synthetic Polypeptide sequence of Variant No. 249 of mature Human GLA
B2: 255 (protein)
chain: B1 chain with L100F, I208V, T221K, N247D, Q302K, V322I, K343D, F365L, K373R, I376V
modifications: Synthetic Polypeptide sequence of Variant No. 255 of mature Human GLA
B3: 251 (protein)
chain: B1 chain with K96I, F217R, T221R, N247D, V322M, K373R
modifications: Synthetic Polypeptide sequence of Variant No. 251 of mature Human GLA
B4: 253 (protein)
chain: B1 chain with K96I, T221R, N247D, Q302K, L316D, V322M, A337P, E367D, T369D, K373R
modifications: Synthetic Polypeptide sequence of Variant No. 253 of mature Human GLA
B5: 250 (protein)
chain: B1 chain with K96I, F217R, T221R, V322M, K373R
modifications: Synthetic Polypeptide sequence of Variant No. 250 of mature Human GLA
B6: 258 (protein)
chain: B1 chain with L100F, I208V, Q302K, V322I, K343D, K373R, I376V
modifications: Synthetic Polypeptide sequence of Variant No. 258 of mature Human GLA
B7: 254 (protein)
chain: B1 chain with L100F, T221R, V322M, K373R
modifications: Synthetic Polypeptide sequence of Variant No. 254 of mature Human GLA
B8: 256 (protein)
chain: B1 chain with L100F, I208V, T221K, N247D, Q302K, K343D, F365L, K373R, I376V
modifications: Synthetic Polypeptide sequence of Variant No. 256 of mature Human GLA
B9: 257 (protein)
chain: B1 chain with L100F, I208V, V322M, K343D, F365L, K373R, I376V
modifications: Synthetic Polypeptide sequence of Variant No. 257 of mature Human GLA
B10: 252 (protein)
chain: B1 chain with K96I, T221R, N247D, V322M, A350G, E367D, T369D, K373R
modifications: Synthetic Polypeptide sequence of Variant No. 252 of mature Human GLA

Tests used:
Format in all cases: biochemical
[1] = HTP-analysis of supernatants pretreated with acid (MUGal hydrolysis); conditions: challenge at pH 4.2; activity of the variant/activity of Rd2BB (SEQ ID NO: 10); yeast culture supernatant
Outline: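 Fluorescence of MUGal hydrolysis (Ex. 355 nm, Em. 448 nm) is read after sodium carbonate quench. The enzyme source is INVSc1 yeast culture supernatant, first exposed to pH 3.3-4.3 McIlvaine buffer at 37° C. for 1-3 h, then reacted at pH 4.8 for 30-180 minutes.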

[2] = HTP-analysis of supernatants pretreated with bovine serum (MUGal hydrolysis); conditions: activity of the variant/activity of Rd2BB (SEQ ID NO: 10), yeast culture supernatant
Outline: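 Yeast INVSc1 culture supernatants containing secreted GLA variants were mixed with bovine serum (20:80) and held 1 h at 37° C. Serum-treated samples then reacted with MUGal (4 mM stock) in citrate/McIlvaine buffer (pH 4.3/4.8) for 180 min at 37° C., were quenched with sodium carbonate, and read by fluorescence (Ex 355, Em 448 nm).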

[3] = HTP-analysis of supernatants pretreated with base (MUGal hydrolysis); conditions: challenge at pH 7.6; activity of the variant/activity of Rd2BB (SEQ ID NO: 10); yeast culture supernatant
Outline: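 GLA variants were secreted by transformed INVSc1 yeast grown 66-84 h at 30° C. Supernatants were exposed to neutral-to-basic buffers (pH 7.0-9.7) at 37° C for 1-18 h, then assayed with MUGal in acidic citrate/McIlvaine buffer, with fluorescence read after quenching.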

[4] = HTP-analysis of yeast culture supernatants, no challenge (MUGal hydrolysis); conditions: activity of the variant/activity of Rd2BB (SEQ ID NO: 10), yeast culture supernatant
Outline: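 GLA variants were expressed in INVSc1 yeast grown in SD-Ura broth with glucose at 30° C., and culture supernatants were collected after 66-84 h. Supernatant was mixed with McIlvaine buffer pH 4.8 and MUGal (2 mM stock) in 50 mM citrate, 200 mM KCl, pH 4.6, incubated at 37° C. for 30-180 minutes, then quenched with sodium carbonate.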

Molecule | Relative Activity of GLA Variants After Challenge at pH 4.2 [1] | Relative Activity of GLA Variants After Challenge with Serum [2] | Relative Activity of GLA Variants After Challenge at pH 7.6 [3] | Relative Activity of GLA Variants After No Challenge (NC) [4]
B1 | ++ (++ = 1.5 to 2.5 relative activity over Rd2BB (SEQ ID NO: 10)) | ++ (++ = 1.5 to 2.5 relative activity over Rd2BB (SEQ ID NO: 10)) | +++ (+++ = >2.5 relative activity over Rd2BB (SEQ ID NO: 10)) | ++ (++ = 1.5 to 2.5 relative activity over Rd2BB (SEQ ID NO: 10))
B2 | +++ (+++ = >2.5 relative activity over Rd2BB (SEQ ID NO: 10)) | ++ (++ = 1.5 to 2.5 relative activity over Rd2BB (SEQ ID NO: 10)) | +++ (+++ = >2.5 relative activity over Rd2BB (SEQ ID NO: 10)) | +++ (+++ = >2.5 relative activity over Rd2BB (SEQ ID NO: 10))
B3 | + (+ = 0.5 to 1.5 relative activity over Rd2BB (SEQ ID NO: 10)) | + (+ = 0.5 to 1.5 relative activity over Rd2BB (SEQ ID NO: 10)) | ++ (++ = 1.5 to 2.5 relative activity over Rd2BB (SEQ ID NO: 10)) | ++ (++ = 1.5 to 2.5 relative activity over Rd2BB (SEQ ID NO: 10))
B4 | +++ (+++ = >2.5 relative activity over Rd2BB (SEQ ID NO: 10)) | +++ (+++ = >2.5 relative activity over Rd2BB (SEQ ID NO: 10)) | +++ (+++ = >2.5 relative activity over Rd2BB (SEQ ID NO: 10)) | +++ (+++ = >2.5 relative activity over Rd2BB (SEQ ID NO: 10))
B5 | + (+ = 0.5 to 1.5 relative activity over Rd2BB (SEQ ID NO: 10)) | + (+ = 0.5 to 1.5 relative activity over Rd2BB (SEQ ID NO: 10)) | + (+ = 0.5 to 1.5 relative activity over Rd2BB (SEQ ID NO: 10)) | + (+ = 0.5 to 1.5 relative activity over Rd2BB (SEQ ID NO: 10))
B6 | ++ (++ = 1.5 to 2.5 relative activity over Rd2BB (SEQ ID NO: 10)) | ++ (++ = 1.5 to 2.5 relative activity over Rd2BB (SEQ ID NO: 10)) | +++ (+++ = >2.5 relative activity over Rd2BB (SEQ ID NO: 10)) | +++ (+++ = >2.5 relative activity over Rd2BB (SEQ ID NO: 10))
B7 | + (+ = 0.5 to 1.5 relative activity over Rd2BB (SEQ ID NO: 10)) | + (+ = 0.5 to 1.5 relative activity over Rd2BB (SEQ ID NO: 10)) | + (+ = 0.5 to 1.5 relative activity over Rd2BB (SEQ ID NO: 10)) | + (+ = 0.5 to 1.5 relative activity over Rd2BB (SEQ ID NO: 10))
B8 | +++ (+++ = >2.5 relative activity over Rd2BB (SEQ ID NO: 10)) | +++ (+++ = >2.5 relative activity over Rd2BB (SEQ ID NO: 10)) | +++ (+++ = >2.5 relative activity over Rd2BB (SEQ ID NO: 10)) | ++ (++ = 1.5 to 2.5 relative activity over Rd2BB (SEQ ID NO: 10))
B9 | ++ (++ = 1.5 to 2.5 relative activity over Rd2BB (SEQ ID NO: 10)) | ++ (++ = 1.5 to 2.5 relative activity over Rd2BB (SEQ ID NO: 10)) | ++ (++ = 1.5 to 2.5 relative activity over Rd2BB (SEQ ID NO: 10)) | ++ (++ = 1.5 to 2.5 relative activity over Rd2BB (SEQ ID NO: 10))
B10 | +++ (+++ = >2.5 relative activity over Rd2BB (SEQ ID NO: 10)) | +++ (+++ = >2.5 relative activity over Rd2BB (SEQ ID NO: 10)) | +++ (+++ = >2.5 relative activity over Rd2BB (SEQ ID NO: 10)) | +++ (+++ = >2.5 relative activity over Rd2BB (SEQ ID NO: 10))
